Measurements from patent US20190263932A1 (Eli Lilly, published 2019).
Positions count from the first letter of the chain named.

B1: mAb A (antibody, human IgG4 S228P, kappa, F234A L235A, V domains shown)
VH: EVQLVESGGGLVKPGGSLRLSCAASGFTFSGVSINWVRQAPGKGLEWVSSETTSSGTIYYADSVKGRFTISRDNAKNSLYLQMNSLRAEDTAVYYCARSYYYGMDVWGQGTTVTVSS
VL: DIVMTQTPLSSPVTLGQPASISCRSSQSLVHRNGNTYLSWLQQRPGQPPRLLIYKISNRFSGVPDRFSGSGAGTDFTLKISRVEAEDVGVYYCMQARQFPLTFGGGTKVEIKR
notes: Human IgG4PAA/Kappa
B2: mAb C (antibody, human IgG4 S228P, kappa, F234A L235A)
heavy: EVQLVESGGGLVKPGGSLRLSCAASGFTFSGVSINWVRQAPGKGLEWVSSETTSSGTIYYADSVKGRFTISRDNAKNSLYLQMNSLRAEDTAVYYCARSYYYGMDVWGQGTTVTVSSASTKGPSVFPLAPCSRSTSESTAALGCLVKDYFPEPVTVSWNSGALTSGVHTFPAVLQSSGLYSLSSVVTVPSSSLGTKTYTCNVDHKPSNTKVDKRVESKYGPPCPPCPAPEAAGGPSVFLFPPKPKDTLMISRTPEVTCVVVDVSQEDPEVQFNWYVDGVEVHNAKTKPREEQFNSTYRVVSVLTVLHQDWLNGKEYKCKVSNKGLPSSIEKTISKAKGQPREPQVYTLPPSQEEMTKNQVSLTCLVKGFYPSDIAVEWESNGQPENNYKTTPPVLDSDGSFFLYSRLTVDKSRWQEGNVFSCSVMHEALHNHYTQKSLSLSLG
light: DIVMTQTPLSSPVTLGQPASISCRSSQSLVHRQGNTYLSWLQQRPGQPPRLLIYKISNRFSGVPDRFSGSGAGTDFTLKISRVEAEDVGVYYCMQARQFPLTFGGGTKVEIKRTVAAPSVFIFPPSDEQLKSGTASVVCLLNNFYPREAKVQWKVDNALQSGNSQESVTEQDSKDSTYSLSSTLTLSKADYEKHKVYACEVTHQGLSSPVTKSFNRGEC
notes: Human IgG4PAA/Kappa
B3: mAb B (antibody, human IgG4 S228P, kappa, F234A L235A)
heavy: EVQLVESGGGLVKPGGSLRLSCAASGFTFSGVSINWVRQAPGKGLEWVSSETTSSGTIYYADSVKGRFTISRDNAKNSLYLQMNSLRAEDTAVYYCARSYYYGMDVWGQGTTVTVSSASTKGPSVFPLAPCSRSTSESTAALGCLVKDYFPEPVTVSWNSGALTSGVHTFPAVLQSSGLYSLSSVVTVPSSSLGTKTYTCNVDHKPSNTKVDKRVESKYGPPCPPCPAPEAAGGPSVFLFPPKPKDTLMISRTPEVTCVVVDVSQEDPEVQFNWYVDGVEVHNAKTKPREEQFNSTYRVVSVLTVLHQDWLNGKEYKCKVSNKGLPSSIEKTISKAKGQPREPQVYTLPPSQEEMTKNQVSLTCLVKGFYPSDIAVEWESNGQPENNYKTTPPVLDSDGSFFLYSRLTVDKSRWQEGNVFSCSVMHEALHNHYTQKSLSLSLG
light: B2 light with Q33A
notes: Human IgG4PAA/Kappa

Legend:
[1] = target: T1, recombinant human TrkA protein (human, UniProt P04629-2 34-407, limits assumed); assay: NGF-blocking ELISA on coated human TrkA, 100 nM btNGF; mAb 0.16 nM
T1 sequence (P04629 other isoform, or with tags, fused parts or gaps limits assumed): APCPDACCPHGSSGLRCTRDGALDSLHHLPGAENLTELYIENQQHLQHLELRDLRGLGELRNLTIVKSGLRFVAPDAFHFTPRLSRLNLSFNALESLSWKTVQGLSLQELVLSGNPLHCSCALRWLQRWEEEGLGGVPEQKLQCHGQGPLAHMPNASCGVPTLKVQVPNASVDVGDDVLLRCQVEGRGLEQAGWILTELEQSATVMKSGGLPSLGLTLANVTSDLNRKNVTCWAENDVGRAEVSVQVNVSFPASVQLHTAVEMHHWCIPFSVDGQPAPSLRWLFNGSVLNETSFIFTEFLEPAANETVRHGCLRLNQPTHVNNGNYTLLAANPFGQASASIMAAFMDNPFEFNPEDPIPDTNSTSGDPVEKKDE
Procedure: (§1) Each row of a 96-well high-binding clear-bottom microtiter plate (Microlon, #655061) was coated overnight at 4° C. with 100 μL/well of recombinant human TrkA protein, diluted to 2 μg/mL in phosphate buffered saline, pH 7.2 (PBS). The next day, the coating solution was removed, and the plate was blocked with 150 μL of Casein-PBS (Thermo Scientific, #37528) for 1 hour at 25° C. with gentle shaking. The plate was then washed three times with PBS supplemented with 0.05% Tween20 (PBST). A two-fold dilution series of exemplified antibodies, along with IgG4 and IgG1 isotype control antibodies, was generated starting at 20 nM in Casein-PBS. 100 μL of the each dilution series sample was added to a well for 30 min at 37° C. with gentle shaking. The plate was then washed three times with PBST. […] The plate was then washed three times with PBST. A 1:3500 dilution of a 1 mg/mL stock solution of streptavidin-HRP (Thermo Scientific, #21130) in Casein-PBS was prepared and […] was added to each well for 20 min at 37° C. with gentle shaking. The plate was washed three times with PBST. […] The reaction was stopped by addition of 100 μL of 1M H₃PO₄ to each well. The absorbance at 450 nm (Abs450) was measured using a SpectraMax 340PC plate reader (Molecular Devices).

[2] = target: T2, rat TrkA receptor expressed in transfected HEK293 cells (rat, UniProt P35739 33-799); assay: cell-based or functional assay
T2 sequence (P35739 33-799): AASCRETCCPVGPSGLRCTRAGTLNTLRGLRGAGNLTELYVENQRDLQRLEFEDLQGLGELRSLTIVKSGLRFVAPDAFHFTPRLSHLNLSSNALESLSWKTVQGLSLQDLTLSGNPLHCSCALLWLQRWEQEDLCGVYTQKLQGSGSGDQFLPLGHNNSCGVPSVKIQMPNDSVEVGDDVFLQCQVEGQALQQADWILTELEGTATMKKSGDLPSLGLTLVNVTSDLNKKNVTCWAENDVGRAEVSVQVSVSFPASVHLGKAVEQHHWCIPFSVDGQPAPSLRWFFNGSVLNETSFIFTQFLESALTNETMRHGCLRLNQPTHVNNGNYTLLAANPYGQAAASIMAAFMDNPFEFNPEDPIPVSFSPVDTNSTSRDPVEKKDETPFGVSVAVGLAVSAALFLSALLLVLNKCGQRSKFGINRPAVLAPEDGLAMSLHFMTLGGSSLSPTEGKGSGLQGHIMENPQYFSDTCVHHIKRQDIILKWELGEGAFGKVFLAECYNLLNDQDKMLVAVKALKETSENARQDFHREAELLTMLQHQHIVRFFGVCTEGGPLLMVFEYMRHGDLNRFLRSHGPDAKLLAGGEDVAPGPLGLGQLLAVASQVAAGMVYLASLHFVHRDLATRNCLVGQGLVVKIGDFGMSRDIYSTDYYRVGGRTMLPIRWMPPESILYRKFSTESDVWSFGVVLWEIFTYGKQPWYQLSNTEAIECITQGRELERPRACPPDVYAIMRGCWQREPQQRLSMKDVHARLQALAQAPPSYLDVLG

[3] = target: T1, recombinant human TrkA protein; assay: NGF-blocking ELISA on coated human TrkA, 100 nM btNGF; mAb 1.25 nM
Procedure: as §1

[4] = target: T1, recombinant human TrkA protein; assay: NGF-blocking ELISA on coated human TrkA, 100 nM btNGF; mAb 5 nM
Procedure: as §1

[5] = target: T1, recombinant human TrkA protein; assay: NGF-blocking ELISA on coated human TrkA, 100 nM btNGF; mAb 0.31 (printed pM, two-fold series gives nM)
Procedure: as §1

[6] = target: TrkA on rat NEUROSCREEN-1 cells (pheochromocytoma PC12 subclone) (rat, UniProt P35739 33-799); assay: cell-based or functional assay
Chain of TrkA on rat NEUROSCREEN-1 cells (pheochromocytoma PC12 subclone) (P35739 33-799): as above

[7] = target: T1, recombinant human TrkA protein; assay: NGF-blocking ELISA on coated human TrkA, 100 nM btNGF; mAb 20 nM
[8] = target: T1, recombinant human TrkA protein; assay: NGF-blocking ELISA on coated human TrkA, 100 nM btNGF
Procedure: as §1

[9] = target: T2, rat TrkA receptor expressed in …; assay: cell-based or functional assay; remark: listed apart in the source
[10] = target: T1, recombinant human TrkA protein; assay: NGF-blocking ELISA on coated human TrkA, 100 nM btNGF; mAb 2.5 nM
Procedure: as §1

[11] = target: T3, Human TrkA Extracellular Domain Isoform 2 (33-408) (human, UniProt P04629 33-414); assay: SPR, mAb captured on Protein A chip, 37 C
T3 construct: SPR analyte; also called Human TrkA Isoform 2
T3 sequence (P04629 other isoform, or with tags, fused parts or gaps): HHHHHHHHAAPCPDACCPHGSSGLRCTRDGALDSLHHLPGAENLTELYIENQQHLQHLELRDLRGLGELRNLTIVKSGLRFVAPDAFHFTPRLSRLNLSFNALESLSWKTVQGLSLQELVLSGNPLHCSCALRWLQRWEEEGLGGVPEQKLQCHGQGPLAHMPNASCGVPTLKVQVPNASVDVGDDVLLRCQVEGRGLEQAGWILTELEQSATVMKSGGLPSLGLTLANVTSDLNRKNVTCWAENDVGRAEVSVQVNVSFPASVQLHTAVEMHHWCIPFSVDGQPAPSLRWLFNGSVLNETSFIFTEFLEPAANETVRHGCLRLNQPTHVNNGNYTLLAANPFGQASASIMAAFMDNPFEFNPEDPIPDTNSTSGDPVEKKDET
Procedure: Antibodies are captured onto a Series-S Sensor Protein A CM5 chip (GE Healthcare). For each channel, Flow Cell 1 (FC1) is designated as a buffer reference and Flow Cell 2 (FC2) is designated for antibody capture. All FC2 on all eight channels are set to capture approximately 89 response units (RU) of antibody at a flow rate of 10 μL/min. All antibody samples are prepared at 5 μg/mL by dilution into the running buffer. […] Before the analysis cycle, the chip is regenerated with 3 injections of glycine (pH ˜1.5) at 100 μL/min for a contact time of 15 seconds on FC1 and FC2 in order to clean the surface of the chip. […] This is repeated for each antibody evaluated. Data is processed using predefined antibody parallel kinetics with reference subtraction and fit to a 1:1 binding model using BIACORE™ 8K evaluation software (version 1.1.1.7442) to determine the association rate (on-rate, kon, M⁻¹s⁻¹ units) and the dissociation rate (off-rate, koff, s⁻¹ units). The equilibrium dissociation constant (KD) is calculated from the relationship KD=koff/kₒₙ, in molar units. The average (Avg) KD and error, reported as the standard deviation (SD), is determined from three independent experiments.

| Binder | Absorbance 450 nm [1] | % Max stimulation, pTrkA [2] [%] | EC50 (nM), pTrkA [2] [nM] | pTrkA counts per second, 0.1 pM mAb, no NGF [2] [counts per second] | pTrkA counts per second, 1 pM mAb, no NGF [2] [counts per second] | pTrkA counts per second, 10 pM mAb, no NGF [2] [counts per second] | pTrkA counts per second, 100 pM mAb, no NGF [2] [counts per second] | pTrkA counts per second, 1 nM mAb, no NGF [2] [counts per second] | pTrkA counts per second, 10 nM mAb, no NGF [2] [counts per second] | pTrkA counts per second, 100 nM mAb, no NGF [2] [counts per second] | pTrkA counts per second, 1 uM mAb, no NGF [2] [counts per second] | Absorbance 450 nm [3] | Absorbance 450 nm [4] | Absorbance 450 nm [5] | % Max Stimulation of neurite outgrowth [6] [%] | IC50, inhibition of NGF-induced neurite outgrowth [6] [nM] | Absorbance 450 nm [7] | IC50 [8] [nM] | % Max Inhibition, pTrkA [9] [%] | IC50 (nM), pTrkA [9] [nM] | other results |
| --- | --- | --- | --- | --- | --- | --- | --- | --- | --- | --- | --- | --- | --- | --- | --- | --- | --- | --- | --- | --- | --- |
| B1 | 0.87 | 18 | 0.88 | 171000 | 174000 | 227000 | 203000 | 442000 | 640000 | 572000 | 493000 | 0.26 | 0.2 | 0.73 | 7 | 0.1 | 0.2 | 0.34 | 82 | 0.57 | pTrkA counts per second, NGF +0.1 pM mAb [9]: 1.83e+06 counts per second; pTrkA counts per second, NGF +1 pM mAb [9]: 2.09e+06 counts per second; pTrkA counts per second, NGF +10 pM mAb [9]: 2.2e+06 counts per second; pTrkA counts per second, NGF +100 pM mAb [9]: 1.69e+06 counts per second; pTrkA counts per second, NGF +1 nM mAb [9]: 1.15e+06 counts per second; pTrkA counts per second, NGF +10 nM mAb [9]: 710000 counts per second; pTrkA counts per second, NGF +100 nM mAb [9]: 544000 counts per second; pTrkA counts per second, NGF +1 uM mAb [9]: 580000 counts per second; Absorbance 450 nm [10]: 0.21 |
| B2 | 0.77 | 50 | 0.21 | 571000 | 613000 | 664000 | 922000 | 1.54e+06 | 1.69e+06 | 1.77e+06 | 1.63e+06 | 0.16 | 0.16 | 0.56 | 7 | 0.06 | 0.15 | 0.28 | 65 | 1.6 | pTrkA counts per second, NGF +0.1 pM mAb [9]: 3.38e+06 counts per second; pTrkA counts per second, NGF +1 pM mAb [9]: 3.05e+06 counts per second; pTrkA counts per second, NGF +10 pM mAb [9]: 3.68e+06 counts per second; pTrkA counts per second, NGF +100 pM mAb [9]: 2.95e+06 counts per second; pTrkA counts per second, NGF +1 nM mAb [9]: 2.67e+06 counts per second; pTrkA counts per second, NGF +10 nM mAb [9]: 1.53e+06 counts per second; pTrkA counts per second, NGF +100 nM mAb [9]: 1.58e+06 counts per second; pTrkA counts per second, NGF +1 uM mAb [9]: 1.3e+06 counts per second; Absorbance 450 nm [10]: 0.15 |
| B3 | 0.7 | 38 | 0.98 | 748000 | 844000 | 638000 | 758000 | 1.4e+06 | 2.1e+06 | 2.08e+06 | 1.86e+06 | 0.17 | 0.15 | 0.55 | 10 | 0.07 | 0.15 | 0.27 | 42 | 0.72 | Kd [11]: 7.7 nM; koff [11]: 0.0012 s⁻¹; kon [11]: 160000 M⁻¹ s⁻¹; pTrkA counts per second, NGF +0.1 pM mAb [9]: 4.79e+06 counts per second; pTrkA counts per second, NGF +1 pM mAb [9]: 4.86e+06 counts per second; pTrkA counts per second, NGF +10 pM mAb [9]: 4.46e+06 counts per second; pTrkA counts per second, NGF +100 pM mAb [9]: 5.16e+06 counts per second; pTrkA counts per second, NGF +1 nM mAb [9]: 3.3e+06 counts per second; pTrkA counts per second, NGF +10 nM mAb [9]: 2.87e+06 counts per second; pTrkA counts per second, NGF +100 nM mAb [9]: 2.34e+06 counts per second; pTrkA counts per second, NGF +1 uM mAb [9]: 2.99e+06 counts per second; Absorbance 450 nm [10]: 0.16 |
